Reference: the supplement of paper PMC10567573

B1: ZC3H15 (parent)
chain: ENLFTGEDLDELEEELNTLDLEE
B2: SNAP91 (parent)
chain: FAQPMMRPPFGAAAVPGTQLSPSP

Variants of: B1
Assay: protein stability index of a GFP-peptide fusion (GPS, HEK-293T) (PSI 1-6); higher = more stable
Conditions: c terminus: native
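Note: lentivirally expressed fusions sorted by FACS into six bins by GFP to DsRed ratio, PSI derived from sequencing read proportions per bin multiplied by bin number.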

Protein stability index of substitutions, site by site:
E23: L 5.73, A 5.96, D 5.47, H 5.42, I 5.81, Y 5.58, Q 4.97, K 5.61, R 3.26, W 5.54, V 5.29, S 5.89, N 5.51, P 5.67, G 5.05, F 5.07, M 4.61
T18: S 5.05, N 5.31, R 4.26, A 4.22, C 4.8, P 2.54, Q 5.2, D 4.24, H 4.81, V 3.58, K 5.53, W 3.31, L 4.96
L21: F 3.33, C 2.13, S 2.58, K 2.71, T 2.68, I 2.25, A 2.44, H 3.31, V 2.59, G 4.82, N 1.1, D 4.99, Y 3.62, Q 4.88, R 3.48, E 4.73
D10: H 4.89, M 3.89, Q 4.89, W 4.02, L 4.28, F 4.12, R 5.07, G 4.73, P 5, Y 3.33, K 4.35, A 5.27, V 5.1, N 5.33, I 4.73, E 5.05
E15: Q 4.93, D 3.74, P 3.14, L 3.29, N 4.61, H 4.29, F 3.37, K 5.54, S 5.18, T 5.01, W 4.08, R 5.29, I 4.04, Y 3.4, A 4.94, V 3.09, M 3.88, G 5.2
E11: G 5.13, S 4.93, M 4.25, V 4.1, H 4.58, N 4.58, R 4.98, K 4.83, A 3.93, L 4.3, P 4.06, F 3.64, C 4.52, T 4.9, W 4.67, I 4.71, Q 4.89, D 4.58
E22: V 5.55, S 5.84, Y 5.5, Q 5.67, M 5.37, P 5.17, T 5.41, N 5.37, L 5.79, W 5.39, I 5.44, K 5.67, D 5.75, A 5.34, C 5.58, R 5.7, G 5.33, H 5.94, F 5.82
L16: E 3.7, V 4.22, Q 2.69, P 3.32, R 3.77, N 4.12, T 4.77, S 3.82, H 4.2, M 4.78, F 4.87, W 2.9, K 3.62, G 4.11, A 3.48
E7: W 4.54, V 3.99, R 4.69, Y 4.23, S 5, Q 4.11
N17: M 3.5, K 5.18, R 5.04, A 4.7, Y 3.79, C 3.64, I 3.3, S 4.45, W 2.69, T 3.66, E 4.89, Q 4.06, V 3.5, H 3.71, D 4.65, F 2.5
L9: Y 2.68, K 2.38, D 3.87, R 3.18, E 4.54, A 4.25, Q 3.82, N 4.1, S 4.49, G 4.03, T 4, V 4.68, M 4.69, I 5, P 4.55, W 3.09, H 3.51, F 3.48, C 4.43
E14: K 5.14, H 5.05, P 3.42, Y 4.33, V 3.65, G 3.47, Q 4.56, S 4.85, A 5.01, D 4.74, W 3.7, T 4.12, C 3.99, F 2.95, I 3.3, N 4.37, M 3.55
L12: I 4.14, N 4.38, F 3.84, K 4.01, E 4.79, Q 3.69, D 5.07, A 3.23, G 4.72, C 4.9, S 4.59, R 3.52, M 3.43, P 4.82, Y 1.93
E13: P 3.56, I 4.51, Q 5.06, V 4.83, D 4.46, W 3.48, N 5.1, F 3.81, R 4.37, S 5.36, K 4, C 5.19, H 3.82, L 4.44, A 5.59, Y 4.11, T 4.6, G 3.77
D8: T 4.25, H 4.66, Q 4.58, P 4.24, V 4.83, C 4.99, R 5.05, I 4.13, G 5.03, L 4.72, E 4.58, K 4.39, W 4.09, S 5.14, N 3.93
L19: N 4.52, Y 1.99, D 5.17, Q 4.27, F 2.97, H 3.85, K 4.95, A 4.58, G 4.69, E 5.17, V 3.86, S 4.91, I 3.98, W 1.11, T 4.7, P 4.67
D20: E 4.52, P 3.12, S 5.25, Y 5.22, C 5.38, M 3.71, R 5.48, H 4.87, F 4.85, W 4.2, G 5.35, A 4.55, T 5.39, N 4.67, K 5.11, V 4.99

Variants of: B2
Assay: as above
Conditions: c terminus: a fixed tail appended

Protein stability index: each site, then its substitutions
F1: M 4.26, Y 2.24, Q 4.66, P 4.75, T 4.53, N 4.53, C 3.3, V 4.42, G 4.5, I 4.02, W 3.41, S 4.11, E 4.68, L 3.59, K 4.28, H 4.02, D 4.55, A 4.67, R 4.19
P4: H 2.75, E 2.77, F 1.44, A 2.05, I 1.96, C 2.48, G 2.01, D 2.7
Q3: A 3.3, M 2.93, K 3.32, F 3.04, L 3.01, W 2.32, V 3.45, G 2.8, T 3.56, H 2.86, R 3.42, C 2.58, S 3.61, Y 1.82, I 2.55, D 2.12, N 2.98, E 2.17
A2: Q 3.33, L 2.62, W 2.45, I 1.94, G 3.52, C 2.73, E 4.45, T 3.09, Y 3.56, N 4.59, H 2.27, V 1.71, M 3.62, P 3.72, K 3.84, R 3.85, D 4.69, S 3.81, F 2.96
